Reference: patent publication US20140087995A1 (published 2014)
Numbering of substitutions follows the chain as printed. Numbered stars: 1 amine (or outer) side, 2 acyl side, 3 side chain; on linkers, the order of the positions; unused ones are H or OH. Bridge positions count the residues as written; N and C are the ends. Side chains are listed from the residue outwards. Ends that are not written are not given here. * marks the point of attachment. C20 diacid = O=C(O)CCCCCCCCCCCCCCCCCCC(=O)*; γGlu = O=C(O)[C@H](CCC(=O)[*:2])N[*:1]; AEEA = NCCOCCOCC(=O)O

T1: human calcitonin receptor (human, UniProt P30988 25-474)
T1 construct: whole, on cells; membranes of stably transfected BHK cells (Assay VII); also called hCTR; hCT
T1 sequence (looked up): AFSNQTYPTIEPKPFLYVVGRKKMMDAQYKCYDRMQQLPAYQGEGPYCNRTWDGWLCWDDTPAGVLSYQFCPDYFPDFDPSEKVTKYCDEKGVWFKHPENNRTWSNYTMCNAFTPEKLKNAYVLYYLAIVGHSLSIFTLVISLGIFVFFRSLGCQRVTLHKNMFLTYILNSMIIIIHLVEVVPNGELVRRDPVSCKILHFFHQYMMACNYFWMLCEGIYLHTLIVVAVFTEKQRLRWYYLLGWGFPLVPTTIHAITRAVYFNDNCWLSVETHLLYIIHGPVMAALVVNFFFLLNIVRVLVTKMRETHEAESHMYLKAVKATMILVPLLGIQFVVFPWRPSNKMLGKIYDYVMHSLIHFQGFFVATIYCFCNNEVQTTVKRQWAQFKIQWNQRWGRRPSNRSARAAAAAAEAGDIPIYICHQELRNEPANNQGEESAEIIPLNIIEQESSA

T2: rat calcitonin receptor (rat, UniProt P32214 25-516)
T2 construct: whole, on cells; membranes of transiently transfected BHK tk'ts 13 cells (Assay VIII); also called rCTR; rat calcitonin (a) receptor
T2 sequence (looked up): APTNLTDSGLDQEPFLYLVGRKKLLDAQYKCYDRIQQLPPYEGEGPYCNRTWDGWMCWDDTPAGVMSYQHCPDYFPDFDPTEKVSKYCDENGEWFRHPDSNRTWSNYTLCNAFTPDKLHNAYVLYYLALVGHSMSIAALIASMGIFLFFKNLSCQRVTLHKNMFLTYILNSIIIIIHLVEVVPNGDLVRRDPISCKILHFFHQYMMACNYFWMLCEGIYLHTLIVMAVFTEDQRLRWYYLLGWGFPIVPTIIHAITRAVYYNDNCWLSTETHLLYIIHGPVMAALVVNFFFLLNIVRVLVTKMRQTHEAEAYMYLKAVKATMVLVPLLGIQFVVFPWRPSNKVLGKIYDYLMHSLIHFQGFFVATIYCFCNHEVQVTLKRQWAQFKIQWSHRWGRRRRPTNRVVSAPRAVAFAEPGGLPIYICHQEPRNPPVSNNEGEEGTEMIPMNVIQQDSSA

T3: rat amylin receptor (rat calcitonin receptor + rat RAMP 3) (rat, UniProt P32214 25-516; Q9JJ73 23-147)
T3 construct: whole, on cells; membranes of transiently transfected BHK tk'ts 13 cells (Assay VI); also called rAmylin-R; rat amylin 3(a) receptor
T3 sequence (looked up) 1: T2 sequence (looked up)
T3 sequence (looked up) 2: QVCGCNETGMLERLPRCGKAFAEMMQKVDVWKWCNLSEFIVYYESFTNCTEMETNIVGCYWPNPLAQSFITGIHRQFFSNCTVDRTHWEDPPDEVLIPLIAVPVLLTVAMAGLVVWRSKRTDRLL

B1: N^α1-[(4S)-4-carboxy-4-(19-carboxynonadecanoylamino)butanoyl]-[Arg17,Pro21,Pro27,Arg34]-h-amylin (peptide)
peptide: KCNTATCATQRLANFLRHSSPNFGAIPSSTNVGRNTY
modifications: C20 diacid-gGlu on the alpha amino group of the N-terminal residue (Lys 1); disulfide bridge between the two Cys residues; C-terminal amide
notes: analogue of human amylin; also called compound 39
B2: N^α1N^α1-[(4S)-4-carboxy-4-(19-carboxynonadecanoylamino)butanoyl]-[Glu14,Arg17,Pro21,Pro27,Glu35]-h-amylin (peptide)
peptide: {C20 diacid-γGlu}-KCNTATCATQRLAEFLRHSSPNFGAIPSSTNVGSETY-NH2
modifications: disulfide 2-7 (inferred)
notes: analogue of human amylin; the name is printed with N^α1 twice; also called compound 22
B3: N^α1-[(4S)-4-carboxy-4-(19-carboxynonadecanoylamino)butanoyl]-[Arg17,Pro21,Pro27,Pro31,Glu35]-h-amylin (peptide)
peptide: {C20 diacid-γGlu}-KCNTATCATQRLANFLRHSSPNFGAIPSSTPVGSETY-NH2
modifications: disulfide 2-7 (inferred)
notes: analogue of human amylin; also called compound 28
B4: N^α1-[(4S)-4-carboxy-4-(19-carboxynonadecanoylamino)butanoyl]-[Arg17,Pro21,Pro27,His34]-h-amylin (peptide)
peptide: B1 peptide with R34H
modifications: C20 diacid-gGlu on the alpha amino group of the N-terminal residue (Lys 1); disulfide bridge between the two Cys residues; C-terminal amide
notes: analogue of human amylin; also called compound 40
B5: N^α1-[(4S)-4-carboxy-4-(19-carboxynonadecanoylamino)butanoyl]-[His14,Arg17,Pro21,Pro27,Glu35]-h-amylin (peptide)
peptide: {C20 diacid-γGlu}-KCNTATCATQRLAHFLRHSSPNFGAIPSSTNVGSETY-NH2
modifications: disulfide 2-7 (inferred)
notes: analogue of human amylin; also called compound 30
B6: N^ε1-[2-[2-[2-[[(4S)-4-carboxy-4-(19-carboxynonadecanoylamino)butanoyl]amino]ethoxy]ethoxy]acetyl]-[Arg17,Pro21,Pro27,Pro34]-h-amylin (peptide)
peptide: K([AEEA-γGlu-C20 diacid])CNTATCATQRLANFLRHSSPNFGAIPSSTNVGPNTY-NH2
modifications: disulfide 2-7 (inferred)
notes: analogue of human amylin; also called compound 50
B7: N^α1-[(4S)-4-carboxy-4-(19-carboxynonadecanoylamino)butanoyl]-[Glu14,Arg17,Pro21,Pro27,Pro34]-h-amylin (peptide)
peptide: {C20 diacid-γGlu}-KCNTATCATQRLAEFLRHSSPNFGAIPSSTNVGPNTY-NH2
modifications: disulfide 2-7 (inferred)
notes: analogue of human amylin; also called compound 32
B8: N^ε1-[2-[2-[2-[[2-[2-[2-[[(4S)-4-carboxy-4-(19-carboxynonadecanoylamino)butanoyl]amino]ethoxy]ethoxy]acetyl]amino]ethoxy]ethoxy]acetyl]-[Arg17,Pro21,Pro27,Glu35 … (peptide)
peptide: K([AEEA-AEEA-γGlu-C20 diacid])CNTATCATQRLANFLRHSSPNFGAIPSSTNVGSETY-NH2
modifications: disulfide 2-7 (inferred)
notes: analogue of human amylin; also called compound 25
B9: N^α1-[(4S)-4-carboxy-4-(19-carboxynonadecanoylamino)butanoyl]-[Glu14,Arg17,Pro21,Pro27,Arg35]-h-amylin (peptide)
peptide: {C20 diacid-γGlu}-KCNTATCATQRLAEFLRHSSPNFGAIPSSTNVGSRTY-NH2
modifications: disulfide 2-7 (inferred)
notes: analogue of human amylin; also called compound 16
B10: N^α1-[(4S)-4-carboxy-4-(19-carboxynonadecanoylamino)butanoyl]-[Arg17,Pro21,Pro27,Glu35]-h-amylin (peptide)
peptide: B1 peptide with R34S, N35E
modifications: C20 diacid-gGlu on the alpha amino group of the N-terminal residue (Lys 1); disulfide bridge between the two Cys residues; C-terminal amide
notes: analogue of human amylin; also called compound 23

molecular target: T1, human calcitonin receptor; experiment: IC50 on human calcitonin receptor divided by IC50 on human amylin receptor (SPA competition)
Experimental: The resulting pellet was resuspended, homogenized and centrifuged (20.000 rpm, 15 min) in a buffer containing 20 mM Na-HEPES and 0.1 mM EDTA (pH 7.4, buffer 2). The resulting pellet was resuspended in buffer 2 and protein concentration was measured (BCA protein Assay, Pierce). The homogenate was kept cold during the whole procedure. The membranes were kept at −80° C. until use. The assay was performed in a 384 well Optiplate (PerkinElmer) in a total volume of 40 ul. Membranes were mixed with SPA beads. Final concentration of membranes 35 ng/μL final and SPA beads was 0.05 mg/well. Test-compounds were dissolved in DMSO and further diluted in assay buffer (50 mM Hepes, pH 7.4, 1 mM CaCl2, 5 mM MgCl₂, 0.1% OA and 0.02% Tween20). […] The final mixture was incubated with shaking at 400 rpm for 120 min at 25° C. prior to centrifugation (1500 rpm, 10 min). Samples were analyzed on TopCounter™ (Packard). The IC₅₀ was calculated using (one site binding competition analysis) GraphPad Prism5 as a measure of receptor affinity.
Membranes were prepared in the following way; the cells were rinsed with PBS and incubated with Versene for approximately 5 min before harvesting. The cells were flushed with PBS and the cell-suspension was centrifuged for 5 min at 1000 rpm. Cells were homogenized (Ultrathurrax) in a buffer containing 20 mM Na-HEPES and 10 mM EDTA (pH 7.4) and centrifuged at 20.000 rpm for 15 min. The resulting pellet was resuspended, homogenized and centrifuged (20.000 rpm, 15 min) in a buffer containing 20 mM Na-HEPES and 0.1 mM EDTA (pH 7.4, buffer 2). The resulting pellet was resuspended in buffer 2 and protein concentration was measured (BCA protein Assay, Pierce). The homogenate was kept cold during the whole procedure. The membranes were kept at −80° C. until use. Assay was performed in a 384 well Optiplate (PerkinElmer) in a total volume of 40 ul. Membranes were mixed with SPA beads.

Row | Ratio hCT/hAmylin binding | Binder
1 | 29 | B1
2 | 12.3 | B2
3 | 20.5 | B3
4 | 31.1 | B4
5 | 23.6 | B5
6 | 36 | B6
7 | 10.9 | B7
8 | 56.5 | B8
9 | 19.1 | B9
10 | 25 | B10

molecular target: T2, rat calcitonin receptor; experiment: SPA competition with 125I-calcitonin, membranes of BHK cells with rat calcitonin receptor (Assay VIII)

Row | IC50 [nM] | Binder
11 | 96.4 | B1
12 | 62.5 | B2
13 | 54.9 | B3
14 | 69.2 | B4
15 | 114 | B5
16 | 5.63 | B6
17 | 5.98 | B7
18 | 131 | B8
19 | 55.2 | B9
20 | 79.9 | B10

molecular target: T3, rat amylin receptor (rat calcitonin …); experiment: SPA competition with 125I-rat amylin, membranes of BHK cells with rat calcitonin receptor + rat RAMP3 (Assay VI)

Row | IC50 [nM] | Binder
21 | 1.77 | B1
22 | 2.19 | B2
23 | 1.22 | B3
24 | 1.5 | B4
25 | 3.14 | B5
26 | 0.069 | B6
27 | 0.176 | B7
28 | 3.48 | B8
29 | 1.21 | B9
30 | 1.12 | B10

molecular target: T2, rat calcitonin receptor; experiment: IC50 on rat calcitonin receptor divided by IC50 on rat amylin receptor (SPA competition)

Row | Ratio rCT/rAmylin binding | Binder
31 | 54.5 | B1
32 | 28.5 | B2
33 | 44.9 | B3
34 | 46.2 | B4
35 | 36.1 | B5
36 | 81.7 | B6
37 | 34 | B7
38 | 37.7 | B8
39 | 45.6 | B9
40 | 71.3 | B10
